Biological target: T1, KIF1C-GFP (recombinant full-length human KIF1C, 6His-KIF1C-GFP) (human, UniProt O43896 1-1103)
T1 sequence (looked up): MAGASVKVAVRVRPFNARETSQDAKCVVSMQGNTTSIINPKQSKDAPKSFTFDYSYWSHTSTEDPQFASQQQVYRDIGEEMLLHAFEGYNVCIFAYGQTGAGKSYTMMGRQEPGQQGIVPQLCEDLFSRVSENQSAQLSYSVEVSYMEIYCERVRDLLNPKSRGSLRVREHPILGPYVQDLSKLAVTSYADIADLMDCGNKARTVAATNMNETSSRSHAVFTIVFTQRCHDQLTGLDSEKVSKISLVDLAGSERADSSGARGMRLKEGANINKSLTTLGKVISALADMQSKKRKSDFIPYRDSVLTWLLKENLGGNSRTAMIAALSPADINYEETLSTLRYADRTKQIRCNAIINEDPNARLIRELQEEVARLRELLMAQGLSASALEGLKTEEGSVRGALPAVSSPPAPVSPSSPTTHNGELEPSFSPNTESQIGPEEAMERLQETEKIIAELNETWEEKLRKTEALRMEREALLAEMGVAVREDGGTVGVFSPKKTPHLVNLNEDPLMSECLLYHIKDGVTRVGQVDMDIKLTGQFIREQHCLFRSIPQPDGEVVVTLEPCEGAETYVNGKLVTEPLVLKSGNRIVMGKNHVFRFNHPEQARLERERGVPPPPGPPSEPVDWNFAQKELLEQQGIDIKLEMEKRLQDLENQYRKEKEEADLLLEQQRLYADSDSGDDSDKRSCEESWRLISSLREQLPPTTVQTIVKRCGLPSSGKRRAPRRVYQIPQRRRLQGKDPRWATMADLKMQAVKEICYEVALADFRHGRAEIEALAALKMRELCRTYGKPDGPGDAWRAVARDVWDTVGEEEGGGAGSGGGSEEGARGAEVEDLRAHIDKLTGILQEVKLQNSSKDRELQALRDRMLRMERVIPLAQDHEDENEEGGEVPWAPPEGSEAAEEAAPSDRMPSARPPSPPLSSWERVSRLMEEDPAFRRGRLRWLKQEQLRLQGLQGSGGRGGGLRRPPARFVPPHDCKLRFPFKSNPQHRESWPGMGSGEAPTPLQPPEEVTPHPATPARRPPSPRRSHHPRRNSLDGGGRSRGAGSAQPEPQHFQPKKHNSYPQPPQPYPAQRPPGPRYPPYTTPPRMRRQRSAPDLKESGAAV
Test: cell-based or functional assay

landing rate of KIF1C-GFP on microtubules in single molecule assays, 320 nM KIF1C preincubated with 500 nM Hook3-647: 2 fold
B1: Hook3-SNAPf labelled with Alexa647 (recombinant human Hook3 with a C-terminal SNAP-tag) (natural protein, UniProt Q86VS8 1-718, looked up)
chain: MFSVESLERAELCESLLTWIQTFNVDAPCQTVEDLTNGVVMAQVLQKIDPAYFDENWLNRIKTEVGDNWRLKISNLKKILKGILDYNHEILGQQINDFTLPDVNLIGEHSDAAELGRMLQLILGCAVNCEQKQEYIQAIMMMEESVQHVVMTAIQELMSKESPVSAGNDAYVDLDRQLKKTTEELNEALSAKEEIAQRCHELDMQVAALQEEKSSLLAENQVLMERLNQSDSIEDPNSPAGRRHLQLQTQLEQLQEETFRLEAAKDDYRIRCEELEKEISELRQQNDELTTLADEAQSLKDEIDVLRHSSDKVSKLEGQVESYKKKLEDLGDLRRQVKLLEEKNTMYMQNTVSLEEELRKANAARSQLETYKRQVVELQNRLSEESKKADKLDFEYKRLKEKVDSLQKEKDRLRTERDSLKETIEELRCVQAQEGQLTTQGLMPLGSQESSDSLAAEIVTPEIREKLIRLQHENKMLKLNQEGSDNEKIALLQSLLDDANLRKNELETENRLVNQRLLEVQSQVEELQKSLQDQGSKAEDSVLLKKKLEEHLEKLHEANNELQKKRAIIEDLEPRFNNSSLKIEELQEALRKKEEEMKQMEERYKKYLEKAKSVIRTLDPKQNQGAAPEIQALKNQLQERDRLFHSLEKEYEKTKSQREMEEKYIVSAWYNMGMTLHKKAAEDRLASTGSGQSFLARQRQATSSRRSYPGHVQPATAR
modifications: Alexa Fluor 647 on the SNAP tag (SNAP-Surface Alexa Fluor 647)
